US20220017622A1 (Pfizer, published 2022)
Several values for one entry are separate records, joined by “and”; a condition that tells them apart may be missing. Identical values can stand only once.

Molecular target: T1, human B7-H4 extracellular domain (human, UniProt Q7Z7D3 29-258)
T1 construct: Soluble ECD used as SPR analyte; also called huB7-H4 ECD; huB7-H4
T1 sequence: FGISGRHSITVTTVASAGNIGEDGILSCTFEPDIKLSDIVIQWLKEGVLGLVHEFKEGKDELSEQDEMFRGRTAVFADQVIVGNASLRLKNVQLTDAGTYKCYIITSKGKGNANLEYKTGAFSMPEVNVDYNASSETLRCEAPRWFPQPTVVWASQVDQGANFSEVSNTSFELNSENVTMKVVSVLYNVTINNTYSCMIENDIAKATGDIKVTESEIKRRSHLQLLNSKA
Test: SPR 37 C; IgG1 on anti-hFc chip, ECD analyte;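 note: antibodies captured, then B7-H4 ECD injected at five 3-fold dilutions from 300 nM, 65 s association and 600 s dissociation, fitted to a 1:1 Langmuir model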
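Throughout, for IC50: tested antibody premixed 1:1 with biotinylated parental antibody, 2 h at room temperature on coated ECD, bound biotin detected via streptavidin-HRP, absorbance read at 450 nm.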

Binder | Kd [nM] | koff [s⁻¹] | kon [M⁻¹ s⁻¹]
B7-H4 antibody 1080 (antibody, human IgG1, kappa, V domains shown, IgG1 mAb format) VH: EVQLVESGGGLVQPGGSLRLSCAVSGGSFSGYYWNWIRQPPGKGLEWIGEINHSGSATYNPSLKSRVTISVDTAKNSLYLQMNSLRAEDTAVYYCARGLYNWNVDHWGQGTLVTVSS VL: DIQMTQSPSSLSASVGDRVTITCRASQGIRNDLGWYQQKPGKAPKRLIYAASSLQSGVPSRFSGSGSGTDFTLTISSLQPEDFATYYCLQHNAYPRTFGGGTKVEIKR | 13.8 | 0.0054 | 392000

Molecular target: T2, human B7-H4 extracellular domain (human, UniProt Q7Z7D3 29-258)
T2 construct: For SPR it says only human B7-H4 ECD; also called Hu B7-H4 ECD; huB7-H4 ECD
T2 sequence: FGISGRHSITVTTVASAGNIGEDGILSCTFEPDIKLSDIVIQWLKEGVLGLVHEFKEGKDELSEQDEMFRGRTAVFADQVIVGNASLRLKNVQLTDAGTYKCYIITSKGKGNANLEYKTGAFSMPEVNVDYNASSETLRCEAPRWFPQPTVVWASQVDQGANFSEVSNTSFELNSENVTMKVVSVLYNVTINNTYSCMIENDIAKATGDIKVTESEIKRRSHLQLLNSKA
Test: competition ELISA on coated huB7-H4 ECD; competitor biotinylated 0052 (by series, not given)

IC50 | Binder
2.1 nM | B7-H4 antibody 1083 (antibody, human IgG1, kappa, V domains shown) VH: EVQLVESGGGLVQPGGSLRLSCAASGGSFSGYYWNWIRQPPGKGLEWIGEINHSGSATYNPSLKSRVTISVDTAKNSFYLQMNSLRAEDTAVYYCARGLYNWNVDHWGQGTLVTVSS VL: DIQMTQSPSSLSASVGDRVTITCRASQGIRNDLGWYQQKPGKAPKRLIYAASSLQSGVPSRFSGSGSGTDFTLTISSLQPEDFATYYCLQHNAYPRTFGGGTKVEIKR
2 nM | B7-H4 antibody 1082 (antibody, human IgG1, kappa, V domains shown) VH: EVQLVESGGGLVQPGGSLRLSCAASGGSFSGYYWNWVRQAPGKGLEWIGEINHSGSATYNPSLKSRVTISVDTAKNSLYLQMNSLRAEDTAVYYCARGLYNWNVDHWGQGTLVTVSS VL: DIQMTQSPSSLSASVGDRVTITCRASQGIRNDLGWYQQKPGKAPKRLIYAASSLQSGVPSRFSGSGSGTDFTLTISSLQPEDFATYYCLQHNAYPRTFGGGTKVEIKR
2.5 nM | B7-H4 antibody 0911 (antibody, human IgG1, kappa, V domains shown) VH: EVQLVESGGGLVQPGGSLRLSCAVSGGSFSGYYWNWIRQPPGKGLEWIGEINHSGSATYNPSLKSRVTISVDTAKNSLYLQMNSLRAEDTAVYYCARGLYNWNVDHWGQGTLVTVSS VL: DIQMTQSPSSLSASVGDRVTITCRASQGIRNDLGWYQQKPGKAPKRLIYAASSLQSGVPSRFSGSGSGTDFTLTISSLQPEDFATYYCLQHSSYPRTFGGGTKVEIKR
3.5 nM | B7-H4 antibody 1081 (antibody, human IgG1, kappa, V domains shown) VH: EVQLVESGGGLVQPGGSLRLSCAVSGGSFSGYYWNWIRQPPGKGLEWIGEIDHQGSTKYNPSLKSRVTISVDTAKNSFYLQMNSLRAEDTAVYYCARGLYNWNVDHWGQGTLVTVSS VL: DIQMTQSPSSLSASVGDRVTITCRASQGIRNDLGWYQQKPGKAPKRLIYAASSLQSGVPSRFSGSGSGTDFTLTISSLQPEDFATYYCLQHNAYPRTFGGGTKVEIKR
42.3 nM | B7-H4 antibody 0546 (antibody, human IgG1, kappa, V domains shown) VH: EVQLVESGGGLVQPGGSLRLSCAVSGGSFSGYYWNWIRQPPGKGLEWIGEIDHQGSTKYNPSLKSRVTISVDTAKNSLYLQMNSLRAEDTAVYYCARELYNWNVDHWGQGTLVTVSS VL: DIQMTQSPSSLSASVGDRVTITCRASQGIRNDLGWYQQKPGKAPKRLIYAASSLQSGVPSRFSGSGSGTDFTLTISSLQPEDFATYYCLQHSSYPRTFGGGTKVEIKR
3.6 nM | B7-H4 antibody 0934 (antibody, human IgG1, kappa, V domains shown) VH: EVQLVESGGGLVQPGGSLRLSCAVSGGSFSGYYWNWVRQAPGKGLEWIGEINHSGSATYNPSLKSRVTISVDTAKNSLYLQMNSLRAEDTAVYYCARGLYNWNVDHWGQGTLVTVSS VL: DIQMTQSPSSLSASVGDRVTITCRASQGIRNDLGWYQQKPGKAPKRLIYAASSLQSGVPSRFSGSGSGTDFTLTISSLQPEDFATYYCLQHSSYPRTFGGGTKVEIKR

Second part, the binder before the results:

Binder | IC50
B7-H4 antibody 0542 (antibody, human IgG1, kappa, V domains shown) VH: EVQLVESGGGLVQPGGSLRLSCAASGGSFSGYYWNWIRQPPGKGLEWIGEIDHQGSTKYNPSLKSRVTISVDTAKNSLYLQMNSLRAEDTAVYYCARELYNWNVDHWGQGTLVTVSS VL: DIQMTQSPSSLSASVGDRVTITCRASQGIRNDLGWYQQKPGKAPKRLIYAASSLQSGVPSRFSGSGSGTDFTLTISSLQPEDFATYYCLQHSSYPRTFGGGTKVEIKR | 33.8 nM
B7-H4 antibody 0385 (antibody, human IgG1, kappa, V domains shown) VH: QVQLQQWGAGLLKPSETLPLTCAVYGGSFSGYYWNWIRQPPGKGLEWIGEINHSGSATYNPSLKSRVTISVDTSKNHFSLKLSSVTAADTAVYFCARGLYNWNVDHWGQGTLVTVSS VL: DIQMTQSPSSLSASVGDRVTITCRASQGIRNDLGWYQQKPGKAPKRLIYAASSLQSGVPSRFSGSGSGTDFTLTISSLQPEDFATYYCLQHQSYPRTFGGGTKVEIKR | 7.87 nM
B7-H4 antibody 0279 (antibody, human IgG1, kappa, V domains shown) VH: EVQLVESGGGLVQPGGSLRLSCAVSGGSFSGYYWNWVRQAPGKGLEWIGEINHSGSATYNPSLKSRFTISVDTAKNSFYLQMNSLRAEDTAVYYCARGLYNWNVDHWGQGTLVTVSS VL: DIQMTQSPSSLSASVGDRVTITCRASQGIRNDLGWYQQKPGKAPKRLIYAASSLQSGVPSRFSGSGSGTEFTLTISSLQPEDFATYYCLQHNSYPRTFGGGTKVEIKR | 5.94 nM and 14.9 nM
B7-H4 antibody 0283 (antibody, human IgG1, kappa, V domains shown) VH: QVQLQQWGAGLLKPSETLPLTCAVYGGSFSGYYWNWIRQPPGKGLEWIGEINHSGSATYNPSLKSRVTISVDTSKNHFSLKLSSVTAADTAVYFCARGLYNWNVDHWGQGTLVTVSS VL: DIQMTQSPSSLSASVGDRVTITCRASQGIRNDLGWYQQKPGKAPKRLIYAASSLQSGVPSRFSGSGSGTDFTLTISSLQPEDFATYYCLQHNSYPRTFGGGTKVEIKR | 7.2 nM and 12.9 nM
B7-H4 antibody 0270 (antibody, human IgG1, kappa, V domains shown) VH: QVQLQQWGAGLLKPSETLSLTCAVYGGSFSGYYWNWIRQPPGKGLEWIGEINHSGSTKYNPSLKSRVTISGDTSKNQFSLKLNSVTAADTAVYYCVRGLYNWNVDSWGQGTLVTVSS VL: DIQMTQSPSSLSASVGDRVTITCRASQGIRNDLGWYQQKPGKAPKRLIYVASSLQSGVPSRFSGSGSGTDFTLTISSLQPEDFATYYCLQHNSYPYTFGQGTKLEIKR | 9.07 nM
B7-H4 antibody 0544 (antibody, human IgG1, kappa, V domains shown) VH: EVQLVESGGGLVQPGGSLRLSCAASGGSFSGYYWNWIRQPPGKGLEWIGEIDHQGSTKYNPSLKSRVTISVDTAKNSLYLQMNSLRAEDTAVYYCARGLYNWNVDHWGQGTLVTVSS VL: DIQMTQSPSSLSASVGDRVTITCRASQGIRNDLGWYQQKPGKAPKRLIYAASSLQSGVPSRFSGSGSGTDFTLTISSLQPEDFATYYCLQHSSYPRTFGGGTKVEIKR | 35.5 nM
B7-H4 antibody 0383 (antibody, human IgG1, kappa, V domains shown) VH: QVQLQQWGAGLLKPSETLPLTCAVYGGSFSGYYWNWIRQPPGKGLEWIGEINHSGSATYNPSLKSRVTISVDTSKNHFSLKLSSVTAADTAVYFCARGLYNWNVDHWGQGTLVTVSS VL: DIQMTQSPSSLSASVGDRVTITCRASQGIRNDLGWYQQKPGKAPKRLIYAASSLQSGVPSRFSGSGSGTDFTLTISSLQPEDFATYYCLQHNAYPRTFGGGTKVEIKR | 7.17 nM
B7-H4 antibody 0390 (antibody, human IgG1, kappa, V domains shown) VH: QVQLQQWGAGLLKPSETLPLTCAVYGGSFSGYYWNWIRQPPGKGLEWIGEINHSGSATYNPSLKSRVTISVDTSKNHFSLKLSSVTAADTAVYFCARGLYNWNVDHWGQGTLVTVSS VL: DIQMTQSPSSLSASVGDRVTITCRASQGIRNDLGWYQQKPGKAPKRLIYAASSLQSGVPSRFSGSGSGTDFTLTISSLQPEDFATYYCLQHQSYPYTFGQGTKLEIKR | 15.2 nM
B7-H4 antibody 0384 (antibody, human IgG1, kappa, V domains shown) VH: QVQLQQWGAGLLKPSETLPLTCAVYGGSFSGYYWNWIRQPPGKGLEWIGEINHSGSATYNPSLKSRVTISVDTSKNHFSLKLSSVTAADTAVYFCARGLYNWNVDHWGQGTLVTVSS VL: DIQMTQSPSSLSASVGDRVTITCRASQGIRNDLGWYQQKPGKAPKRLIYAASSLQSGVPSRFSGSGSGTDFTLTISSLQPEDFATYYCLQHSSYPRTFGGGTKVEIKR | 6.91 nM
B7-H4 antibody 0277 (antibody, human IgG1, kappa, V domains shown) VH: EVQLVESGGGLVQPGGSLRLSCAASGGSFSGYYWNWVRQAPGKGLEWVAEINHSGSATYNPSLKSRFTISRDNAKNSLYLQMNSLRAEDTAVYYCARGLYNWNVDHWGQGTLVTVSS VL: DIQMTQSPSSLSASVGDRVTITCRASQGIRNDLGWYQQKPGKAPKRLIYAASSLQSGVPSRFSGSGSGTEFTLTISSLQPEDFATYYCLQHNSYPRTFGGGTKVEIKR | 19 nM
B7-H4 antibody 0386 (antibody, human IgG1, kappa, V domains shown) VH: QVQLQQWGAGLLKPSETLPLTCAVYGGSFSGYYWNWIRQPPGKGLEWIGEINHSGSATYNPSLKSRVTISVDTSKNHFSLKLSSVTAADTAVYFCARGLYNWNVDHWGQGTLVTVSS VL: DIQMTQSPSSLSASVGDRVTITCRASQGIRNDLGWYQQKPGKAPKRLIYAASSLQSGVPSRFSGSGSGTDFTLTISSLQPEDFATYYCLQHASYPRTFGGGTKVEIKR | 9.2 nM
B7-H4 antibody 0391 (antibody, human IgG1, kappa, V domains shown) VH: QVQLQQWGAGLLKPSETLPLTCAVYGGSFSGYYWNWIRQPPGKGLEWIGEINHSGSATYNPSLKSRVTISVDTSKNHFSLKLSSVTAADTAVYFCARGLYNWNVDHWGQGTLVTVSS VL: DIQMTQSPSSLSASVGDRVTITCRASQGIRNDLGWYQQKPGKAPKRLIYAASSLQSGVPSRFSGSGSGTDFTLTISSLQPEDFATYYCLQHASYPYTFGQGTKLEIKR | 13.6 nM
B7-H4 antibody 0267 (antibody, human IgG1, kappa, V domains shown) VH: EVQLVESGGGLVQPGGSLRLSCAASGGSFSGYYWNWVRQAPGKGLEWIGEINHSGSTKYNPSLKSRFTISGDNAKNSFYLQMNSLRAEDTAVYYCVRGLYNWNVDSWGQGTLVTVSS VL: DIQMTQSPSSLSASVGDRVTITCRASQGIRNDLGWYQQKPGKAPKRLIYVASSLQSGVPSRFSGSGSGTEFTLTISSLQPEDFATYYCLQHNSYPYTFGQGTKLEIKR | 9.42 nM
B7-H4 antibody 0388 (antibody, human IgG1, kappa, V domains shown) VH: QVQLQQWGAGLLKPSETLPLTCAVYGGSFSGYYWNWIRQPPGKGLEWIGEINHSGSATYNPSLKSRVTISVDTSKNHFSLKLSSVTAADTAVYFCARGLYNWNVDHWGQGTLVTVSS VL: DIQMTQSPSSLSASVGDRVTITCRASQGIRNDLGWYQQKPGKAPKRLIYAASSLQSGVPSRFSGSGSGTDFTLTISSLQPEDFATYYCLQHNAYPYTFGQGTKLEIKR | 11.3 nM
